B1: osteoadherin (natural protein)
chain: QYETYQWDEDYDQEPDDDYQTGFPFRQNVDYGVPFHQYTLGCVSECFCPTNFPSSMYCDNRKLKTIPNIPMHIQQLYLQFNEIEAVTANSFINATHLKEINLSHNKIKSQKIDYGVFAKLPNLLQLHLEHNNLEEFPFPLPKSLERLLLGYNEISKLQTNAMDGLVNLTMLDLCYNYLHDSLLKDKIFAKMEKLMQLNLCSNRLESMPPGLPSSLMYLSLENNSISSIPEKYFDKLPKLHTLRMSHNKLQDIPYNIFNLPNIVELSVGHNKLKQAFYIPRNLEHLYLQNNEIEKMNLTVMCPSIDPLHYHHLTYIRVDQNKLKEPISSYIFFCFPHIHTIYYGEQRSTNGQTIQLKTQVFRRFPDDDDESEDHDDPDNAHESPEQEGAEGHFDLHYYENQE
modifications: biotinylated (EZ-Link Sulfo-NHS-LC-Biotinylation kit); glycosylated
B2: biglycan (natural protein)
chain: DEEASGADTSGVLDPDSVTPTYSAMCPFGCHCHLRVVQCSDLGLKSVPKEISPDTTLLDLQNNDISELRKDDFKGLQHLYALVLVNNKISKIHEKAFSPLRKLQKLYISKNHLVEIPPNLPSSLVELRIHDNRIRKVPKGVFSGLRNMNCIEMGGNPLENSGFEPGAFDGLKLNYLRISEAKLTGIPKDLPETLNELHLDHNKIQAIELEDLLRYSKLYRLGLGHNQIRMIENGSLSFLPTLRELHLDNNKLARVPSGLPDLKLLQVVYLHSNNITKVGVNDFCPMGFGVKRAYYNGISLFNNPVPYWEVQPATFRCVTDRLAIQFGNYKK
modifications: biotinylated (EZ-Link Sulfo-NHS-LC-Biotinylation kit); glycosylated
B3: fibromodulin (natural protein)
chain: QYEDDPHWWFHYLRSQQSTYYDPYDPYPYETYEPYPYGVDEGPAYTYGSPSPPDPRDCPQECDCPPNFPTAMYCDNRNLKYLPFVPSRMKYVYFQNNQITSIQEGVFDNATGLLWIALHGNQITSDKVGRKVFSKLRHLERLYLDHNNLTRMPGPLPRSLRELHLDHNQISRVPNNALEGLENLTALYLQHNEIQEVGSSMRGLRSLILLDLSYNHLRKVPDGLPSALEQLYMEHNNVYTVPDSYFRGAPKLLYVRLSHNSLTNNGLASNTFNSSSLLELDLSYNQLQKIPPVNTNLENLYLQGNRINEFSISSFCTVVDVVNFSKLQVLRLDGNEIKRSAMPADAPLCLRLASLIEI
modifications: biotinylated (EZ-Link Sulfo-NHS-LC-Biotinylation kit); glycosylated

Target: recombinant UspA2 (ubiquitous surface protein A2), cloned from M. catarrhalis strain RH4 (Moraxella catarrhalis strain RH4)
Assay: ELISA

Molecule	Kd
decorin (from UniProt P07585 31-359) (natural protein)	293 nM
B1	231 nM
B2	89 nM
B3	202 nM

Source: article PMC6200642
